Changes are numbered by the printed parent chain. Where “and” joins values, the source holds several entries; their conditions need not be identical. Equal values may be shown once.
Experiments:
Experiment in all cases: BLI; 6×His-ZapC or its mutants (0.5 µM) loaded on Ni-NTA biosensors, untagged FtsZ or its variants in solution; Octet-Red96, 30°C, 1× Pol buffer (50 mM HEPES-NaOH pH 6.8, 50 mM KCl, 10 mM MgCl2); apparent Kd from the signal at the end of association against concentration, one-site fit; three repeats with mean (X) and SD
Conditions in all cases: both partners purified
[1] = molecular target: T1, FtsZ (untagged, wild type) (Escherichia coli, UniProt P0A9A6 1-383)
T1 construct: also called wild-type FtsZ; source: E. coli BL21(DE3), plasmid pLY17, purified (Ni-NTA); 6×His-SUMO tag removed with Ulp1; not shown: 6×His-SUMO, N-terminal, cleaved
T1 sequence (looked up): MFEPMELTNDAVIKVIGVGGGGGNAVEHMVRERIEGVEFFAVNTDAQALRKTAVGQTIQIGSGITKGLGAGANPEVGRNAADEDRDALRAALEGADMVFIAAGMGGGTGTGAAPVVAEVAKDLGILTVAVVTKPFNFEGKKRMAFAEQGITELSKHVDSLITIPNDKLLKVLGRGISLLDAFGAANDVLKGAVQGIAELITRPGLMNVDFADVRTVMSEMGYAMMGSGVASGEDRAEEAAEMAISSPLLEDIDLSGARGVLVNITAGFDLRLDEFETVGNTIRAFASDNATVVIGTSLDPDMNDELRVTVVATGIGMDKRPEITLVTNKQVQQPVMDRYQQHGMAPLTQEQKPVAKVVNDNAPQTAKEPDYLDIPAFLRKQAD

FtsZ 1-370 (untagged) = molecular target: T2, FtsZ 1-370 (untagged) (Escherichia coli, UniProt P0A9A6 1-370)
T2 construct: FtsZ of Escherichia coli, residues 1-370; lacks the CTP; Primers BsaI-out-F and 370XbaI-out-R; forward primer starts at codon 2; source: E. coli BL21(DE3), plasmid pLY341, purified (Ni-NTA); 6×His-SUMO tag removed with Ulp1; not shown: 6×His-SUMO, N-terminal, cleaved
T2 sequence (looked up): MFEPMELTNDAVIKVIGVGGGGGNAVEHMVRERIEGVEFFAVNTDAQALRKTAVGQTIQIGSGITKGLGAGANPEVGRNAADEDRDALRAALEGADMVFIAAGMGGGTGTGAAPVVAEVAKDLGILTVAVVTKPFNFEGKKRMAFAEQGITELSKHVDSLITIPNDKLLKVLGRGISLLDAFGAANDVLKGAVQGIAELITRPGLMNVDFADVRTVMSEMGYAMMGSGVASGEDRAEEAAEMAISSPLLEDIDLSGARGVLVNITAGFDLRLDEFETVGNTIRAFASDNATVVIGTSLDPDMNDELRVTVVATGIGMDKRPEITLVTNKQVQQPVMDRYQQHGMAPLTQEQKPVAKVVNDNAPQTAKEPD

FtsZ I323L (untagged) = molecular target: T3, FtsZ I323L (untagged) (Escherichia coli, UniProt P0A9A6 1-383, I323L)
T3 construct: FtsZ of Escherichia coli with I323L (CTL); Derivative of pLY17 by site-directed mutagenesis; source: E. coli BL21(DE3), plasmid pLY20, purified (Ni-NTA); 6×His-SUMO tag removed with Ulp1; not shown: 6×His-SUMO, N-terminal, cleaved
T3 sequence (looked up): T1 sequence (looked up) with I323L

FtsZ A376T (untagged) = molecular target: T4, FtsZ A376T (untagged) (Escherichia coli, UniProt P0A9A6 1-383, A376T)
T4 construct: FtsZ of Escherichia coli with A376T (CTP); Derivative of pLY17 by site-directed mutagenesis; source: E. coli BL21(DE3), plasmid pLY22, purified (Ni-NTA); 6×His-SUMO tag removed with Ulp1; not shown: 6×His-SUMO, N-terminal, cleaved
T4 sequence (looked up): T1 sequence (looked up) with A376T

B1: 6×His-ZapC (natural protein)
chain: not shown
notes: ZapC, FtsZ-associated protein of Escherichia coli; Construction of pSD323 is not described; also called His-tagged ZapC; source: E. coli, plasmid pSD323 (pQE80, Plac::6×His-ZapC), purified (Ni-NTA); not shown: His6, N-terminal, kept
Kd [1]: 377 nM and 395 nM and 488 nM and 420 nM
Kd (FtsZ 1-370 (untagged)): 1540 nM and 1190 nM and 1260 nM and 1330 nM
Kd (FtsZ I323L (untagged)): 647 nM and 635 nM and 620 nM and 579 nM
Kd (FtsZ A376T (untagged)): 859 nM and 778 nM and 821 nM and 819 nM

— article PMC12607630, “ZapC crosslinks FtsZ filaments through a dual-binding mechanism modulated by the intrinsically disordered linker of FtsZ in Escherichia coli” (mBio, 2025)
